In test [1] the target is ALX4 homeodomain (amino acids 209-274) (human) (UniProt Q9H161). Put plainly: native gel or EMSA; quantitative EMSA, purified HD protein with 34 nM fluorescent P4 probe (a single G added to the spacer of the P3 probe); same buffer; Tau = 4[P2D][D]/[PD]^2 (monomer on DNA to dimer on DNA).
Test [2] deals with OTP homeodomain (amino acids 99-164) (human) (UniProt Q5XKR4). The test is described as above.
The target in test [3] is PHOX2B Q46K homeodomain (human). Put plainly: native gel or EMSA; quantitative EMSA, purified HD protein with 34 nM fluorescent Q50 P3 probe (TAAT-TAG-ATTA); 20 min at room temperature, 10 mM Tris pH 7.5, 50 mM NaCl, 1 mM MgCl2, 4% glycerol, 0.5 mM DTT, 0.5 mM EDTA, poly(dI-dC), BSA; Tau = 4[P2D][D]/[PD]^2, the factor by which the first HD on the DNA helps the second to bind (monomer on DNA to dimer on DNA). For orientation: In EMSA bound probe runs differently from free probe, usually more slowly.

Test [4] deals with PHOX2B Q46R homeodomain (human). Described as above.
Test [5] deals with PITX3 homeodomain (human). Put plainly: native gel or EMSA; quantitative EMSA, purified HD protein with 34 nM fluorescent K50 P3 probe (TAAT-CCG-ATTA); 20 min at room temperature, 10 mM Tris pH 7.5, 50 mM NaCl, 1 mM MgCl2, 4% glycerol, 0.5 mM DTT, 0.5 mM EDTA, poly(dI-dC), BSA; Tau = 4[P2D][D]/[PD]^2 (monomer on DNA to dimer on DNA).

“ALX4 homeodomain (amino acids 209-274) (from UniProt Q9H161 209-274) (domain or fragment)” registered a Tau (cooperativity factor) with P4 DNA in test [1] of 0.792.
For “OTP homeodomain (amino acids 99-164) (from UniProt Q5XKR4 99-164) (domain or fragment)”, in test [2], the Tau (cooperativity factor) with P4 DNA came out at 0.29.
On to “PHOX2B Q46K homeodomain (domain or fragment)”, for which the Tau (cooperativity factor) with P3 DNA in test [3] was 1.4.
The substance “PHOX2B Q46R homeodomain (domain or fragment)” gave a Tau (cooperativity factor) with P3 DNA in test [4] of 1.27.
Consider PITX3 homeodomain (domain or fragment), for which the Tau (cooperativity factor) with P3 DNA in test [5] stood at 0.157.

The values are drawn from publication doi:10.1101/2025.10.29.685385.
